Reference: paper PMC11558822, “Myc 9aaTAD activation domain binds to mediator of transcription with superior high affinity” (Molecular Medicine, 2024)
No end group written: not given here. *: point of attachment. Biotin = O=C1N[C@H]2[C@H](CS[C@H]2CCCCC(=O)*)N1

What was measured:
[1] = biological target: T1, KIX domain of CBP coactivator (region 586-672) (UniProt P45481 586-672); assay: BLI; biotinylated peptide immobilised on streptavidin SA biosensors (Octet RED96e); KIX domain in solution at 0.31, 0.63, 1.25, 2.5 and 5.0 uM; 30 C, 1000 rpm; 20 mM sodium phosphate pH 6.0, 50 mM NaCl; blank-subtracted, 1:1 model, steady-state analysis; apparent KD, average of pentaplicate; settings: both partners purified
T1 construct: GST-His6x tag removed by TEV protease; also called KIX protein; source: expressed as GST-His6x-TEV-KIX from pGEX-2T, purified (His trap Ni column, TEV cleavage, second His trap, HiLoad S30); not shown: GST, N-terminal, cleaved; His6, N-terminal, cleaved
T1 sequence (P45481 other isoform, or with tags, fused parts or gaps): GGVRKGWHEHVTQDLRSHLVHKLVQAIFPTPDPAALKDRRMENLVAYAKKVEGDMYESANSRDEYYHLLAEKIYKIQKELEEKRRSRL

[2] = biological target: T1, KIX domain of CBP coactivator (region …); assay: BLI; biotinylated Sp1 or Sp1-Ac peptide immobilised, KIX in solution in the 3-16 uM range; steady-state analysis, 1:1 model; apparent KD; settings: both partners purified

B1: MLL 9aaTAD peptide (Biotin-GS-NILPSDIMDFVLKNT) (peptide)
peptide: Biotin-GSNILPSDIMDFVLKNT
notes: linker between biotin and the MLL stretch; MLL stretch with its 9aaTAD; Positive control of the BLI assay; also called MLL peptide; source: synthetic peptide (Apeptide Shanghai Chutide Biotechnology), 95% purity
[1]
  Kd: 1.17 ± 0.21 µM

B2: c-Myc 9aaTAD peptide (Biotin-GSSS-TQLEMVTELLG) (peptide)
peptide: Biotin-GSSSTQLEMVTELLG
notes: linker between biotin and the c-Myc stretch; it may belong to the linker; also called c-Myc peptide; MYC peptide; source: synthetic peptide (Apeptide Shanghai Chutide Biotechnology), 95% purity
[1]
  Kd: 2.16 ± 1.17 µM

B3: Sp1-Ac peptide, acidic form of Sp1 9aaTAD (Biotin-GSS-GDVSWDTLDLDDLD) (peptide)
peptide: Biotin-GSSGDVSWDTLDLDDLD
notes: linker between biotin and the Sp1 stretch; also called #SpD; acidic modification; source: synthetic peptide (Apeptide Shanghai Chutide Biotechnology), 95% purity
[2]
  Kd: 9.77 ± 1.57 µM

B4: N-Myc 9aaTAD peptide (Biotin-GSSS-EPPSWVTEMLLEN) (peptide)
peptide: Biotin-GSSSEPPSWVTEMLLEN
notes: linker between biotin and the N-Myc stretch; human N-Myc stretch with its 9aaTAD; also called N-Myc peptide; NMY peptide; source: synthetic peptide (Apeptide Shanghai Chutide Biotechnology), 95% purity
[1]
  Kd: 0.88 ± 0.11 µM
